Measured values published in the supplement of paper PMC7125110.
± gives the standard error. For some assays here: This sample holds only a part of the variants without activity.

B1: glmS ribozyme (parent)
chain: AUAAAAGCGCCAGAACUACAGAAAUGUAGUUGACGAGGAGGAGGUUUAUCGAAUUUUCGGCGGAUGCCUCCAAA

Legend:
Settings in all cases: with glucosamine-6-phosphate
glucosamine-6-phosphate [1] = variants of: B1; test: kcat; higher = faster cleavage; RNA array
Summary of the method: (§1)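 Weighted Michaelis–Menten fits across concentrations supplied kcat and KM, based on kobs from one- or two-exponential decay fits to normalised per-tile medians. The data came from barcoded ribozyme variants transcribed in situ by E. coli RNA polymerase on sequenced MiSeq chips and tracked at 37 °C by a hybridised Cy3 probe. Glucosamine-6-phosphate (40 μM to 10 mM) in HEPES/KCl/Mg(OAc)2 buffer was flowed in.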

glucosamine-6-phosphate [2] = variants of: B1; test: self-cleavage kobs at 2500 uM GlcN6P; higher = faster cleavage; RNA array
Summary of the method: as §1

glucosamine-6-phosphate [3] = variants of: B1; test: self-cleavage kobs at 40 uM GlcN6P; higher = faster cleavage; RNA array
Summary of the method: as §1

glucosamine-6-phosphate [4] = variants of: B1; test: self-cleavage kobs at 10000 uM GlcN6P; higher = faster cleavage; RNA array
Summary of the method: as §1

glucosamine-6-phosphate [5] = variants of: B1; test: KM; higher = weaker cofactor use; RNA array
Summary of the method: as §1

glucosamine-6-phosphate [6] = variants of: B1; test: self-cleavage kobs at 160 uM GlcN6P; higher = faster cleavage; RNA array
Summary of the method: as §1

glucosamine-6-phosphate [7] = variants of: B1; test: self-cleavage kobs at 640 uM GlcN6P; higher = faster cleavage; RNA array
Summary of the method: as §1

Row | Variant | kcat (glucosamine-6-phosphate [1]) [s⁻¹] | self-cleavage kobs at 2500 uM GlcN6P (glucosamine-6-phosphate [2]) [s⁻¹] | self-cleavage kobs at 40 uM GlcN6P (glucosamine-6-phosphate [3]) [s⁻¹] | self-cleavage kobs at 10000 uM GlcN6P (glucosamine-6-phosphate [4]) [s⁻¹] | KM (glucosamine-6-phosphate [5]) [µM] | self-cleavage kobs at 160 uM GlcN6P (glucosamine-6-phosphate [6]) [s⁻¹] | self-cleavage kobs at 640 uM GlcN6P (glucosamine-6-phosphate [7]) [s⁻¹]
1 | C68G U69G | 2.17e-05 ± 5e-06 | 2.65e-05 ± 1.2e-05 | – | – | – | – | –
2 | C16G C58U | 3.48e-05 ± 3.2e-06 | 3.89e-05 ± 9.2e-06 | < 1e-05 | 3.22e-05 ± 5.6e-06 | – | – | –
3 | G40A C50G | < 1e-05 | – | – | – | – | – | –
4 | C16A C67U | 0.000302 ± 4.6e-05 | 0.000286 ± 3.2e-05 | – | 0.000261 ± 3.1e-05 | 782 ± 280 | 6.4e-05 ± 1.4e-05 | 0.000122 ± 1.3e-05
5 | G66U C70A | 7.35e-05 ± 1.3e-05 | 8.96e-05 ± 3e-05 | – | 6.04e-05 ± 2e-05 | – | – | 0.000101 ± 4.5e-05
6 | U56G C61A | < 1e-05 | – | – | – | – | – | –
7 | U47G C71A | 0.00107 ± 0.00043 | 0.000556 ± 0.0001 | 5.64e-05 ± 1.4e-05 | 0.00146 ± 0.0002 | – | – | 0.000443 ± 0.0001
8 | U45G U55G | 0.00804 ± 0.002 | 0.00365 ± 0.00057 | 0.000146 ± 1.5e-05 | 0.00624 ± 0.00057 | 2970 ± 1000 | 0.000304 ± 4.5e-05 | 0.00148 ± 0.00024
9 | A53U C70G | 0.000152 ± 2.3e-05 | 0.000136 ± 2.3e-05 | 8.15e-05 ± 2.5e-05 | 0.000142 ± 2.6e-05 | 168 ± 74 | 6.88e-05 ± 7.7e-06 | 0.000133 ± 1.5e-05
10 | G29U U31A | 0.0048 ± 0.0017 | 0.0019 ± 0.00044 | 9.58e-05 ± 1.6e-05 | 0.00369 ± 0.00052 | 3260 ± 1600 | 0.000159 ± 3.6e-05 | 0.000947 ± 0.00018
11 | U45A C67G | 0.000766 ± 0.00012 | 0.000606 ± 0.00012 | – | 0.0006 ± 6.8e-05 | 2290 ± 680 | – | 0.000163 ± 2.6e-05
12 | U46A C71A | 0.00108 ± 0.00054 | 0.000566 ± 0.00015 | – | 0.000724 ± 0.00023 | – | – | 0.000259 ± 5.1e-05
13 | G32A G66C | 5.52e-05 ± 1.5e-06 | 3.72e-05 ± 1.6e-05 | – | 4.9e-05 ± 1.4e-05 | 1250 ± 160 | – | –
14 | A6C U47C | 1.02e-05 ± 2.4e-07 | – | – | – | 526 ± 77 | < 1e-05 | –
15 | C16U G51A C61G | 1.5e-05 ± 3.9e-06 | – | – | – | – | – | –
16 | U30C C70G | 5.67e-05 ± 5.3e-06 | 4.88e-05 ± 9e-06 | – | 5.52e-05 ± 1e-05 | – | 5.73e-05 ± 1.4e-05 | 6.49e-05 ± 1.1e-05

Row | Variant | kcat (glucosamine-6-phosphate [1]) [s⁻¹] | self-cleavage kobs at 2500 uM GlcN6P (glucosamine-6-phosphate [2]) [s⁻¹] | self-cleavage kobs at 40 uM GlcN6P (glucosamine-6-phosphate [3]) [s⁻¹] | self-cleavage kobs at 10000 uM GlcN6P (glucosamine-6-phosphate [4]) [s⁻¹] | KM (glucosamine-6-phosphate [5]) [µM] | self-cleavage kobs at 160 uM GlcN6P (glucosamine-6-phosphate [6]) [s⁻¹] | self-cleavage kobs at 640 uM GlcN6P (glucosamine-6-phosphate [7]) [s⁻¹]
17 | A6U U30G | 4.09e-05 ± 8.6e-06 | 4.14e-05 ± 1.3e-05 | < 1e-05 | 3.5e-05 ± 9.7e-06 | – | – | –
18 | A39C U55A | 0.00799 ± 0.0028 | 0.00295 ± 0.00058 | 0.000201 ± 4.2e-05 | 0.00755 ± 0.0012 | 2790 ± 1400 | 0.000429 ± 7.8e-05 | 0.00143 ± 0.00023
19 | A12U G37A | 0.0147 ± 0.0035 | 0.00456 ± 0.001 | 0.000169 ± 2.3e-05 | 0.0103 ± 0.0011 | 4700 ± 1500 | 0.000398 ± 7.4e-05 | 0.00168 ± 0.00025
20 | U31G U47A | 0.00848 ± 0.0027 | 0.00332 ± 0.00063 | 0.000201 ± 2.8e-05 | 0.00821 ± 0.0011 | 2290 ± 990 | 0.000474 ± 7e-05 | 0.00211 ± 0.00035
21 | G41C C67U C70A | 5.68e-05 ± 1.2e-05 | – | – | 2.88e-05 ± 1.3e-05 | 9730 ± 3700 | – | –
22 | G29A G40A | 0.000354 ± 5.1e-05 | 0.000222 ± 3.7e-05 | – | 0.000353 ± 7.2e-05 | 1090 ± 350 | 3.78e-05 ± 1.7e-05 | 0.000154 ± 2.9e-05
23 | G44A A53U | 0.000232 ± 3.9e-05 | 0.000174 ± 2.8e-05 | – | 0.000182 ± 2.7e-05 | 1820 ± 680 | – | 5.47e-05 ± 1.1e-05
24 | A39U C67A | 0.00981 ± 0.0028 | 0.00477 ± 0.0011 | 0.000197 ± 2.5e-05 | 0.00878 ± 0.0012 | 2330 ± 910 | 0.000759 ± 0.00012 | 0.0015 ± 0.00027
25 | A39G C58U | 7.06e-05 ± 1.1e-06 | 3.24e-05 ± 1.1e-05 | < 1e-05 | 5.43e-05 ± 8.5e-06 | 2990 ± 150 | – | –
26 | A14G U65C | 0.00147 ± 0.00035 | 0.00142 ± 0.00028 | 7.25e-05 ± 1.9e-05 | 0.00124 ± 0.00025 | 1120 ± 420 | 0.000176 ± 3.5e-05 | 0.000445 ± 9.2e-05
27 | G13U G51A | < 1e-05 | < 1e-05 | – | < 1e-05 | – | – | < 1e-05
28 | A12G C67A | 0.000389 ± 8.6e-05 | 0.000186 ± 2.1e-05 | – | 0.000343 ± 4.8e-05 | 2400 ± 880 | 4.4e-05 ± 1e-05 | 7.88e-05 ± 8.7e-06
29 | G29C G66C | 2.22e-05 ± 9.6e-06 | – | – | – | – | – | –
30 | U30G G41U | 0.000172 ± 2.3e-05 | 0.000149 ± 2.6e-05 | – | 0.000154 ± 2.4e-05 | 440 ± 190 | 3.73e-05 ± 1.4e-05 | 0.000153 ± 3.3e-05
31 | G32A C58U | 6.81e-05 ± 1.1e-05 | 4.13e-05 ± 1.1e-05 | < 1e-05 | 6.46e-05 ± 1.3e-05 | – | – | 3.37e-05 ± 1.6e-05
